Measured values as given in patent publication US20180009877A1 (ACADEMIA SINICA, published 2018).

B1: M32 (antibody)
chain: MAELGIELTQSQKFMSTSVGDRVSITCKASQNVGTAVAWYQQKPGQSPKLLIYSASNRYTGVPDRFTGSGSGTDFTLTISNMQSEDLADYFCQQYSSYPLAFGGGTKLEIKSSGGGGSGGGGGGSSRSSLEVQLVESGAELVRPGALVKLSCKASGFNIKDYFMYWVKQRPEQGLEWVGWIDPENGNTIYDPKFQGKASITADTSSNTAYLQLSSLTSEDTAVYYCTRGYYGSRVLAMDYWGQGTSVTVSSAKTTPPSVTSAAA
notes: also called antibody M32
B2: M62 (antibody)
chain: MAELDIQMIQSQKFMSTSVGDRVSVTCKASQNVGTNVAWYQQKPGQSPKALIHSASYRYSGVPDRFTGSGSGTDFTLTISNVQSEDLAEYFCQQYNSYPLTFGAGTKLEIKSSGGGGSGGGGGGSSRSSLEVQLQQSGTELARPGASVKLSCKASGYTFIDYYITWVKQRTGQGLEWIGEIYPGGGNPYYNDNFKGKASLTADKSSNTVYMQLSSLTSEDSAVYFCARSYKYDVSVYWGQGTLVTVSAAKTTPPSVTSAAAGAPVPYPDPLEPRAA
notes: also called antibody M62
B3: M61 (antibody)
chain: MAELDIKITQSPASLSASVGETVTITCRASENIYSYLAWYQQKQGKSPQLLVYNAKTLAEGVPSRFSGSGSGTQFSLKINSLQPEDFGSYYCQHHYGTPYTFGGGTKLELKSSGGGGSGGGGGGSSRSSLEVQLQQSGAELVKPGASVKMSCKAFGYTFTTYPIEWMKQNHGKSLEWIGNFHPYNDDTKYNEKFKGKAKLTVEKSSSTVYLELSRLTSDDSAVYYCARRNDGYYGAMDYWGQGTSVTVSSAKTTAPSVTSAAAGAPVPYPDPLEPRAA
B4: M41 (antibody)
chain: MAELDIQMTQTTSSLSASLGDRVTISCRTSQDISNYLNWYQQKPNGTIKLLIYYTSGLYSGVPSRFSGSGSGADYSLTISNVEQEDIATYFCQQVNTLPYTFGGGTKLELKSSGGGGSGGGGGGSSRSSFEVQLQQSGAELVKPGASVKMSCKAFGYTFTTYPIEWMKQNHGKSLEWIGNFHPYNDYTNYNEKFKGKAKLTVEKSSTTVYLELSRLTSDDSAVYYCARRHDGYYGAMDYWGQGTSVTVSSAKTTAPSVTSAAAGAPVPYPDPLEPRAA
notes: also called antibody M41
B5: M64 (antibody)
chain: MAELDIQMNQSHKFMSTSVGDRVSITCKASQDVSTAVAWYQQKPGQSPKLLIYWASTRHTGVPGRFTGSGSGADYTLTISSVQAEDLALYYCQQHYSTPYTFGGGTKLEIKSSGGGGSGGGGGGSSRSSLEVQLQQSGAELVKPGASVKLSCTASGFNIKNTYMHWVKQRPEQGLEWIGRIDPANGNTKYDPKLQGKATITADTSSNTAYLHLSSLTSEDTAVYYCVPYYRGAMDYWGQGTSVTVSSESQSFPNVTSAAAGAPVPYPDPLEPRAA
B6: H32 (antibody)
chain: DIQMTQSPSSLSASVGDRVTITCKASQNVGTAVAWYQQKPGKAPKLLIYSASNRYTGVPSRFSGSGSGTDFTLTISSLQPEDFATYYCQQYSSYPLAFGQGTKVEIKRGGGGSIEGRSGGGGSEVQLVESGGGLVQPGGSLRLSCKASGFNIKDYFMYWVRQAPGKGLEWVGWIDPENGNTIYDPKFQGRFTISADTSKNTAYLQMNSLRAEDTAVYYCTRGYYGSRVLAMDYWGQGTLVTVSSASAAA
notes: also called antibody H32
B7: M63 (antibody)
chain: MAELDAVVTQESALTTSPGETVTLTCRSSTGTVTTSNYANWVQEKPDHLFTGLIGGTKNRAPGVPARFSGSLIGDKAALTITGAQTEDEAIYFCALWYSNHWVFGGGTKLTVLGSSGGGGSGGGGGGSSRSSLEVQLQQSGPELVRPGDSVKISCKASGYTFSDYAVHWVKRSHGKSLEWIGVISIYYDNINYNQNFKGKATMTVDKSSSTAYLELARLTSEDSAIYYCARRGFDYWGPGTTLTVSSAKTTAPSVTSAAA

Key:
polypeptide HER2/ECD [1] = target: T1, polypeptide HER2/ECD (human, UniProt P04626 23-646); experiment: ELISA, IgG on immobilized HER2/ECD
Procedure: The EC₅₀ of antibody was determined by titrating the antibody on immobilized HER2/ECD with ELISA. Briefly, NUNC 96-well Maxisorb immunoplates were coated with HER2/ECD peptides (0.2 μg per well) in PBS buffer (pH 7.4) via overnight incubation at 4° C., the plates were then blocked with 5% skim milk in PBST [0.05% (v/v) Tween 20] for 1 h. In the meantime, twofold serial dilutions of the antibody in PBST with 5% milk were performed and 11 different concentrations of the antibody were generated. After blocking, 100 μL diluted antibody samples were added to each well, and incubated for 1 h under gentle shaking. The plate was washed 6 times with 300 μL PBST and then added with 100 μL 1:2000-diluted horse-radish peroxidase/anti-human IgG antibody conjugate in PBST with 5% milk for 1 h incubation. The plates were washed 6 times with PBST buffer and twice with PBS, developed for 3 min with 3,3′,5,5′-tetramethyl-benzidine peroxidase substrate (Kirkegaard & Perry Laboratories), quenched with 1.0 M HCl and read spectrophotometrically at 450 nm.

polypeptide HER2/ECD [2] = target: T1, polypeptide HER2/ECD; experiment: SPR (BIAcore), HER2/ECD immobilized, IgG in flow
Procedure: BIAcore T200 (GE Healthcare) instrument was used to determine the binding affinities and kinetic parameters for interactions between antibody and antigen HER2/ECD. HER2/ECD in 10 mM acetate buffer (pH 5.0) was immobilized on a CM5 sensor chip to a response unit (RU) of 1000 with an amine coupling kit. Association (kₒₙ) and dissociation (koff) constants of the interactions between IgGs and HER2/ECD were measured in PBST running buffer (0.05% Tween 20) with a flow rate of 30 μL/min. […] Binding kinetics was determined by global fitting to 1:1 binding model using the Biaevaluation software (GE Healthcare).

Binder	EC50 (polypeptide HER2/ECD [1]) [ng/mL]	Kd (polypeptide HER2/ECD [2]) [nM]	koff (polypeptide HER2/ECD [2]) [s⁻¹]	kon (polypeptide HER2/ECD [2]) [M⁻¹ s⁻¹]
B1	3.1	0.243	7.15e-05	294000
B2	2	0.0228	1.8e-05	788000
B3	3.5	0.591	0.0024	4.06e+06
B4	3.4	0.0519	3.48e-05	671000
B5	3.1	0.195	0.000337	1.74e+06
B6	3.2	0.242	3.85e-05	159000
B7	2.4	–	7.34e-05	–
